In patent US20250011363A1, “OPTIMIZED SHORTENED PEPTIDE THAT BINDS TO ACETYLCHOLINE RECEPTOR, AND USE THEREOF” (SKINMED CO., LTD., priority 2021, published 2025):

The substances below were run against acetylcholine receptor (Homo sapiens, UniProt P02708) (assay: SPR binding affinity (RU) of optimized 5mer/6mer/7mer peptides, Examples 6-7). Settings: 6mer-1 Top sequence; SPR; peptides tested at 10 μM.
In short: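 Peptides were tested at 10 μM by surface plasmon resonance against the receptor, with binding reported as response units. Library sequences were built from frequent (top) or infrequent (bottom) amino acid combinations in 5mer, 6mer-1 and 6mer-2 series.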

acetylcholine receptor, sequence (P02708 21-457): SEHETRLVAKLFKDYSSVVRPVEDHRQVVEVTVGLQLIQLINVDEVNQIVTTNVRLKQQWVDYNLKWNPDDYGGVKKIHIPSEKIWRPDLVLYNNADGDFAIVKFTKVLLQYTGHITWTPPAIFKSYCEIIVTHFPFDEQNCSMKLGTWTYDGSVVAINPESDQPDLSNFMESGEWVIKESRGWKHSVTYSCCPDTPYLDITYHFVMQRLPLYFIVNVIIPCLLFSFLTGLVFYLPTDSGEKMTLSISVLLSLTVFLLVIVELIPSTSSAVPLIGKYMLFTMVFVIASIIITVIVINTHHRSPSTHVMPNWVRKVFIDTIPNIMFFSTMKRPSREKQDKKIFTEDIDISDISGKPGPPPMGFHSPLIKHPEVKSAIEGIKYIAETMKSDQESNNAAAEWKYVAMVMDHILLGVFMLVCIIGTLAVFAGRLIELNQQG

Row | Substance | Binding affinity
1 | 6mer-1-322 (KRGVQR) | 146 Ru
2 | 6mer-1-234 (RRGISR) | 142 Ru
3 | 6mer-1-283 (KKWVQK) | 133 Ru
4 | 6mer-1-298 (KKLYCK) | 147 Ru
5 | 6mer-1-246 (RRLVSR) | 122 Ru

Same assay, conditions: 6mer-2 Top sequence; SPR; peptides tested at 10 μM

Row | Substance | Binding affinity
6 | 6mer-2-42 (KLLSKR) | 126 Ru
7 | 6mer-2-31 (KSYQRK) | 121 Ru
8 | 6mer-2-180 (RLRLKR) | 142 Ru
9 | 6mer-2-159 (RQYYRK) | 127 Ru

Same assay, conditions: SPR, Resonance Units; 5mer Bottom sequence (bottom combinations); peptides tested at 10 μM

Row | Substance | Binding affinity
10 | 5mer-752 (KAWVK) | 26 Ru
11 | 5mer-1002 (KEDNK) | 12 Ru
12 | 5mer-702 (KISHK) | 30 Ru
13 | 5mer-629 (RPTNK) | 32 Ru

Same assay, conditions: SPR, Resonance Units; peptides tested at 10 μM; 6mer-1 Bottom sequence

Row | Substance | Binding affinity
14 | 6mer-1-1184 (RRDTVK) | 30 Ru
15 | 6mer-1-1073 (RKYMWK) | 27 Ru

Same assay, conditions: SPR, Resonance Units; peptides tested at 10 μM; 6mer-1 Bottom sequence (Table 11)

Row | Substance | Binding affinity
16 | 6mer-1-761 (RKETFR) | 33 Ru
17 | 6mer-1-782 (KKNAWK) | 30 Ru
18 | 6mer-1-724 (KRPKNK) | 19 Ru
19 | 6mer-1-731 (RRIKAR) | 18 Ru

Same assay, conditions: SPR, Resonance Units; peptides tested at 10 μM; 6mer-2 Bottom sequence

Row | Substance | Binding affinity
20 | 6mer-2-782 (KPWPKR) | 18 Ru
21 | 6mer-2-682 (RNMERR) | 33 Ru
22 | 6mer-2-824 (RITNKR) | 26 Ru
23 | 6mer-2-843 (KAPDRK) | 33 Ru
24 | 6mer-2-731 (KASWKK) | 19 Ru
25 | 6mer-2-963 (KAKHRR) | 37 Ru

Same assay, conditions: SPR, Resonance Units; peptides tested at 10 μM; 6mer-2 Top sequence

Row | Substance | Binding affinity
26 | 6mer-2-549 (KQLCKK) | 142 Ru
27 | 6mer-2-551 (KWYTKR) | 141 Ru
28 | 6mer-2-588 (KWFYKK) | 149 Ru
29 | 6mer-2-472 (RSRLRR) | 148 Ru
30 | 6mer-2-548 (RLQCRR) | 142 Ru
31 | 6mer-2-555 (RSVSKK) | 154 Ru

Same assay, conditions: SPR, Resonance Units; peptides tested at 10 μM; 6mer-2 Top sequence (Table 12)

Row | Substance | Binding affinity
32 | 6mer-2-378 (KRFQRK) | 131 Ru
33 | 6mer-2-228 (KGQCKK) | 141 Ru
34 | 6mer-2-386 (KWQSKR) | 136 Ru

Same assay, conditions: SPR, peptides at 10 μM; 6mer-2 Bottom sequence

Row | Substance | Binding affinity
35 | 6mer-2-1114 (RKKFRK) | 34 Ru
36 | 6mer-2-1199 (RCTNKR) | 27 Ru
37 | 6mer-2-1037 (KIHWKK) | 26 Ru
38 | 6mer-2-1182 (RHNDKR) | 30 Ru

Same assay, conditions: SPR, peptides tested at 10 μM; 5mer Top sequence

Row | Substance | Binding affinity
39 | 5mer-34 (KRIRK) | 82 Ru
40 | 5mer-477 (KGYSR) | 58 Ru
41 | 5mer-44 (RSRTR) | 59 Ru
42 | 5mer-335 (KSLTR) | 56 Ru
43 | 5mer-409 (KQIYK) | 62 Ru
44 | 5mer-427 (RGLYR) | 87 Ru
45 | 5mer-207 (KQVRR) | 72 Ru
46 | 5mer-197 (RSRQK) | 68 Ru
47 | 5mer-346 (KGISK) | 57 Ru
48 | 5mer-80 (KSRTR) | 83 Ru

Same assay, conditions: SPR, peptides tested at 10 μM; 6mer-1 Bottom sequence (Table 11)

Row | Substance | Binding affinity
49 | 6mer-1-831 (KKNPWK) | 15 Ru
50 | 6mer-1-870 (KRMSHR) | 25 Ru
51 | 6mer-1-987 (RRTEFK) | 34 Ru
52 | 6mer-1-874 (KRANHK) | 18 Ru

Same assay, conditions: SPR, peptides tested at 10 μM; 6mer-1 Top sequence

Row | Substance | Binding affinity
53 | 6mer-1-537 (RRGLCK) | 154 Ru
54 | 6mer-1-434 (KRWVCR) | 137 Ru
55 | 6mer-1-432 (RKGIQK) | 139 Ru

Same assay, conditions: SPR, peptides tested at 10 μM; 6mer-1 Top sequence (top combinations)

Row | Substance | Binding affinity
56 | 6mer-1-28 (RRWISK) | 125 Ru
57 | 6mer-1-1 (KKVISK) | 122 Ru
58 | 6mer-1-187 (RKLFYK) | 139 Ru
59 | 6mer-1-72 (RKVQLK) | 139 Ru
60 | 6mer-1-144 (RKRYTR) | 148 Ru

Same assay, conditions: SPR; XRRGVRR-7mer and RRGVRRX-7mer

Row | Substance | Binding affinity, values relative to the RRGVRR sequence
61 | 3666 (RRGVRRL) [compound 3666] | 146

Same assay, conditions: SPR; peptides tested at 10 μM; 5mer Bottom sequence

Row | Substance | Binding affinity
62 | 5mer-1167 (KESWK) | 12 Ru
63 | 5mer-889 (KTPGR) | 25 Ru
64 | 5mer-1115 (KEPEK) | 27 Ru
65 | 5mer-1194 (RDNGK) | 18 Ru
66 | 5mer-1181 (KKAKR) | 22 Ru
